Assay results reported in publication PMC7802950, “Characteristics and expression patterns of six α-galactosidases in cucumber (Cucumis sativus L.)” (PLoS ONE, 2021).

Experiments:
Details in all cases: pH and temperature of Km assay not stated
[1] = tested on: T1, OC[C@H]1O[C@H](OC[C@H]2O[C@H](O[C@]3(CO)O[C@H](CO)[C@@H](O)[C@@H]3O)[C@H](O)[C@@H](O)[C@@H]2O)[C@H](O)[C@@H](O)[C@H]1O; experiment: Lineweaver-Burk plot, hydrolysis; type: biochemical, Cucumis sativus
T1 construct: coding region in pAcHLT, baculovirus/Sf9 insect cells; 6xHis tag removed by thrombin

[2] = tested on: T2, OC[C@H]1O[C@H](OC[C@H]2O[C@H](OC[C@H]3O[C@H](O[C@]4(CO)O[C@H](CO)[C@@H](O)[C@@H]4O)[C@H](O)[C@@H](O)[C@@H]3O)[C@H](O)[C@@H](O)[C@H]2O)[C@H](O)[C@@H](O)[C@H]1O; experiment: Lineweaver-Burk plot, hydrolysis; type: biochemical, Cucumis sativus
T2 construct: coding region in pAcHLT, baculovirus/Sf9 insect cells; 6xHis tag removed by thrombin

[3] = tested on: O=[N+]([O-])c1ccc(O[C@H]2O[C@H](CO)[C@H](O)[C@H](O)[C@H]2O)cc1; experiment: purified protein

CsGAL3 (Cucumis sativus), sequence (chain, as listed by the source): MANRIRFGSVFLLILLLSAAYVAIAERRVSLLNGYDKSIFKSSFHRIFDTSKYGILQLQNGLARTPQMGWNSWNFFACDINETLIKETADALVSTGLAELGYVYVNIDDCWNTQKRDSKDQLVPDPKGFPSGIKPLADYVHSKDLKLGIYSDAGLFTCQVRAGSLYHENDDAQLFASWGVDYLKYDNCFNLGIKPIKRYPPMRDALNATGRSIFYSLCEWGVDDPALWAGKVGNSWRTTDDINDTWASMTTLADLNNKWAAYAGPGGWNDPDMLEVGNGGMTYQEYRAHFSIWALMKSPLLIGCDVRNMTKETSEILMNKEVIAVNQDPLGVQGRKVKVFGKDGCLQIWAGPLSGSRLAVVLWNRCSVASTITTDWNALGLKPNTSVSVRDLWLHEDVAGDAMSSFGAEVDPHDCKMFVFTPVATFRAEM
CsGAL1 (Cucumis sativus), sequence (chain, as listed by the source): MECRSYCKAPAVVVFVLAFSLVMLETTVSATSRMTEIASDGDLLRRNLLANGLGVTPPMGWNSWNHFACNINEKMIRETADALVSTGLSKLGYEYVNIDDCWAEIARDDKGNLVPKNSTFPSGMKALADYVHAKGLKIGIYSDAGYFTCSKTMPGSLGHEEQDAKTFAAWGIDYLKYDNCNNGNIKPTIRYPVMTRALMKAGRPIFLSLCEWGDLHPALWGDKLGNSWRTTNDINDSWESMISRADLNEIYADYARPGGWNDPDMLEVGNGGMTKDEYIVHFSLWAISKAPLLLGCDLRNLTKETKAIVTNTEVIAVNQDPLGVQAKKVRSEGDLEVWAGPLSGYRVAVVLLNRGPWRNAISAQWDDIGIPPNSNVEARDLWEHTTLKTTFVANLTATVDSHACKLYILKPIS
CsGAL2 (Cucumis sativus), sequence (chain, as listed by the source): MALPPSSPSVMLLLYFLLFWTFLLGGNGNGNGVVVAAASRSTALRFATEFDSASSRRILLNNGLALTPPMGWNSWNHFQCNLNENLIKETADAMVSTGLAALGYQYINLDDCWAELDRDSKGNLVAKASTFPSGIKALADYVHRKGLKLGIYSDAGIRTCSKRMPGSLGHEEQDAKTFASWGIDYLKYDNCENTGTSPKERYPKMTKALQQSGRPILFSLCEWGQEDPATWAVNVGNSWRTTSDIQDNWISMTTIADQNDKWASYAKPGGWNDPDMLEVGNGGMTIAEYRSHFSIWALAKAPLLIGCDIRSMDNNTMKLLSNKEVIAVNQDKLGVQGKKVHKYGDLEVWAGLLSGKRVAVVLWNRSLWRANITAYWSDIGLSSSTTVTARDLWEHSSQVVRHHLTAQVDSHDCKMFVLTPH

| Substance | Km [1] | Km [2] | Km [3] |
| --- | --- | --- | --- |
| CsGAL1 (Cucumis sativus) | 4.71 ± 0.85 mM | 12.3 ± 1.92 mM | 0.89 ± 0.12 mM |
| CsGAL2 (Cucumis sativus) | 5.63 ± 0.67 mM | 11.85 ± 2.05 mM | 1.35 ± 0.23 mM |
| CsGAL3 (Cucumis sativus) | 3.24 ± 0.70 mM | 18.92 ± 2.56 mM | 0.99 ± 0.10 mM |
